Data on one substance can be found in PMC12297413.

In this experiment the target is HgcR (D-2-hydroxyglutarate catabolic regulator), PP4494 (Pseudomonas putida KT2440). Put plainly: SEC.

A word on the stoichiometry N: it is a count of units in the complex or per binding partner. With “HgcR (D-2-hydroxyglutarate catabolic regulator), PP4494 (natural protein)”, the stoichiometry N was determined as 2.
